Biological target: APP695-derived polypeptide (SEQ. ID. NO.:28) having the modified sequence NLDV (SEQ. ID. NO.:7) (Homo sapiens (Human)) (UniProt P05067)
Experiment: cell-based or functional assay

Aβ production in HEK293T cells (IP/Western, densitometry) (times the level of wild type APP695): > 3
Substance: β-secretase of the HEK293T cells used in Example 4 (from UniProt P56817 46-501) (enzyme)

— patent publication US20070219354A1
